Laboratory results from IntAct's records for PubMed 20169075.

B1: Tat proofreading chaperone DmsD (Escherichia coli (strain K12)), P69853 (parent)
chain: MTHFSQQDNFSVAARVLGALFYYAPESAEAAPLVAVLTSDGWETQWPLPEASLAPLVTAFQTQCEETHAQAWQRLFVGPWALPSPPWGSVWLDRESVLFGDSTLALRQWMREKGIQFEMKQNEPEDHFGSLLLMAAWLAENGRQTECEELLAWHLFPWSTRFLDVFIEKAEHPFYRALGELARLTLAQWQSQLLIPVAVKPLFR
B2: Dimethyl sulfoxide reductase DmsA (Escherichia coli (strain K12)), P18775 (parent)
chain: MKTKIPDAVLAAEVSRRGLVKTTAIGGLAMASSALTLPFSRIAHAVDSAIPTKSDEKVIWSACTVNCGSRCPLRMHVVDGEIKYVETDNTGDDNYDGLHQVRACLRGRSMRRRVYNPDRLKYPMKRVGARGEGKFERISWEEAYDIIATNMQRLIKEYGNESIYLNYGTGTLGGTMTRSWPPGNTLVARLMNCCGGYLNHYGDYSSAQIAEGLNYTYGGWADGNSPSDIENSKLVVLFGNNPGETRMSGGGVTYYLEQARQKSNARMIIIDPRYTDTGAGREDEWIPIRPGTDAALVNGLAYVMITENLVDQAFLDKYCVGYDEKTLPASAPKNGHYKAYILGEGPDGVAKTPEWASQITGVPADKIIKLAREIGSTKPAFISQGWGPQRHANGEIATRAISMLAILTGNVGINGGNSGAREGSYSLPFVRMPTLENPIQTSISMFMWTDAIERGPEMTALRDGVRGKDKLDVPIKMIWNYAGNCLINQHSEINRTHEILQDDKKCELIVVIDCHMTSSAKYADILLPDCTASEQMDFALDASCGNMSYVIFNDQVIKPRFECKTIYEMTSELAKRLGVEQQFTEGRTQEEWMRHLYAQSREAIPELPTFEEFRKQGIFKKRDPQGHHVAYKAFREDPQANPLTTPSGKIEIYSQALADIAATWELPEGDVIDPLPIYTPGFESYQDPLNKQYPLQLTGFHYKSRVHSTYGNVDVLKAACRQEMWINPLDAQKRGIHNGDKVRIFNDRGEVHIEAKVTPRMMPGVVALGEGAWYDPDAKRVDKGGCINVLTTQRPSPLAKGNPSHTNLVQVEKV
partner: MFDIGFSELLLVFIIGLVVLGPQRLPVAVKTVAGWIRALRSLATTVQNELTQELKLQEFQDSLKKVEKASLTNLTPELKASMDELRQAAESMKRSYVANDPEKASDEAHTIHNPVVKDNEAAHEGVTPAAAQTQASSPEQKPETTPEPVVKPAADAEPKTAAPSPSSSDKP
B3: Dimethyl sulfoxide reductase DmsA (Escherichia coli (strain K12)), P18775 (parent)
chain: B2 chain
partner: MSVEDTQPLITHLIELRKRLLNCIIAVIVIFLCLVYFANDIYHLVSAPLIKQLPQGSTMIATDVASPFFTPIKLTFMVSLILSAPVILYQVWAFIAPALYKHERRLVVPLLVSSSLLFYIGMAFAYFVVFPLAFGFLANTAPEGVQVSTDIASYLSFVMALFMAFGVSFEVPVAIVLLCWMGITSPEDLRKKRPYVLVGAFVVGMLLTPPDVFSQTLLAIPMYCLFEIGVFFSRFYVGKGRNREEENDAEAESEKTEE
B4: Sec-independent protein translocase protein TatC (Escherichia coli (strain K12)), P69423 (parent)
chain: B3 partner

Variants of: B1
Conditions: with dmsa_ecoli dmsA
In the case of MTHFSQQDNFSVAARVLGALFYYAPESAEAAPLVAVLTSDGWETQWPLPEASLAPLVTAFQTQCEETHAQAHQRYFVGPWALPSPPWGSVWLDRESVLFGDSTLALRQWMREKGIQFEMKQNEPEDHFGSLLLMAAWLAENGRQTECEELLAWHLFPWSTRFLDVFIEKAEHPFYRALGELARLTLAQWQSQLLIPVAVKPLFR [W72H;L75Y], the “effect of a mutation on the interaction” value is reported as “increasing interaction”.

Variants of: B2
Conditions: with tatb_ecoli tatB
For R16K;R17K, the “effect of a mutation on the interaction” value was “increasing interaction”.

Variants of: B3
Conditions: with tatc_ecoli tatC, P69423
In the case of R16K;R17K, the “effect of a mutation on the interaction” value is reported as “increasing interaction”.

Variants of: B4
Conditions: with dmsa_ecoli dmsA, P18775
MSVEDTQPLITHLIELRKRLLNCIIAVIVIFLCLVYFANDIYHLVSAALIKQLPQGSTMIATDVASPFFTPIKLTFMVSLILSAPVILYQVWAFIAPALYKHERRLVVPLLVSSSLLFYIGMAFAYFVVFPLAFGFLANTAPEGVQVSTDIASYLSFVMALFMAFGVSFEVPVAIVLLCWMGITSPEDLRKKRPYVLVGAFVVGMLLTPPDVFSQTLLAIPMYCLFEIGVFFSRFYVGKGRNREEENDAEAESEKTEE [P48A] was tested, and the “effect of a mutation on the interaction” value was “decreasing interaction”.
MSVEDTQPLITHLIELRKRLLNCIIAVIVIFLCLVYFANDIYHLVSAPLIKQLPQGSTMIATDVASPFFTPIKLTFMVSLILSAPVILYQVWAFIAPALYKHRRRLVVPLLVSSSLLFYIGMAFAYFVVFPLAFGFLANTAPEGVQVSTDIASYLSFVMALFMAFGVSFEVPVAIVLLCWMGITSPEDLRKKRPYVLVGAFVVGMLLTPPDVFSQTLLAIPMYCLFEIGVFFSRFYVGKGRNREEENDAEAESEKTEE [E103R] was tested, and the “effect of a mutation on the interaction” value was “decreasing interaction”.

Variants of: B4
Conditions: with dmsd_ecoli dmsD
For MSVEDTQPLITHLIELRKRLLNCIIAVIVIFLCLVYFANDIYHLVSAALIKQLPQGSTMIATDVASPFFTPIKLTFMVSLILSAPVILYQVWAFIAPALYKHERRLVVPLLVSSSLLFYIGMAFAYFVVFPLAFGFLANTAPEGVQVSTDIASYLSFVMALFMAFGVSFEVPVAIVLLCWMGITSPEDLRKKRPYVLVGAFVVGMLLTPPDVFSQTLLAIPMYCLFEIGVFFSRFYVGKGRNREEENDAEAESEKTEE [P48A], the “effect of a mutation on the interaction” value was “decreasing interaction”.
With MSVEDTQPLITHLIELRKRLLNCIIAVIVIFLCLVYFANDIYHLVSAPLIKQLPQGSTMIATDVASPFFTPIKLTFMVSLILSAPVILYQVWAFIAPALYKHRRRLVVPLLVSSSLLFYIGMAFAYFVVFPLAFGFLANTAPEGVQVSTDIASYLSFVMALFMAFGVSFEVPVAIVLLCWMGITSPEDLRKKRPYVLVGAFVVGMLLTPPDVFSQTLLAIPMYCLFEIGVFFSRFYVGKGRNREEENDAEAESEKTEE [E103R] the “effect of a mutation on the interaction” value was “disrupting interaction”.
